Laboratory results as given in US20150037348A1 (AbbVie / Abbott, published 2015).
Positions count from the first letter of the chain named. Values belong to the binder of their own block, whether it stands above or below them.

Target: T1, human IL-12 (human, UniProt P29459 23-219; P29460 23-328)
T1 construct: recombinant human IL-12 heterodimer (p35/p40, disulfide-linked); also called hIL-12; rhIL-12
T1 sequence (looked up) 1: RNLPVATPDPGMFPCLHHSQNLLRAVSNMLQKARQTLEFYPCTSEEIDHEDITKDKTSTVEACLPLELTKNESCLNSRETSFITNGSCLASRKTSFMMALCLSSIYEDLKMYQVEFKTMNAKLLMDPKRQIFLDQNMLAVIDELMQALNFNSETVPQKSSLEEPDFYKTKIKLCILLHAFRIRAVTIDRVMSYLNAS
T1 sequence (looked up) 2: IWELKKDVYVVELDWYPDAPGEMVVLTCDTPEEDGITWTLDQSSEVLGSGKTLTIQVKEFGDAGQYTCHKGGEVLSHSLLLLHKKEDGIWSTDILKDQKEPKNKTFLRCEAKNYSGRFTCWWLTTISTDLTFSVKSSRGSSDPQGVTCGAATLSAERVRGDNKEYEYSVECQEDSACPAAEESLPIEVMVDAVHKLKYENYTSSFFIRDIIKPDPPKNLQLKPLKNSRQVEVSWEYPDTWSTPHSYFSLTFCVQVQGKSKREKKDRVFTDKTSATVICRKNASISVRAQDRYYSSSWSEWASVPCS
Assay: SPR (BIAcore), IL-12 chip
Text: The system utilizes the optical properties of SPR to detect alterations in protein concentrations within a dextran biosensor matrix. Proteins are covalently bound to the dextran matrix at known concentrations. […] To determine the off rate (koff), on rate (kₒₙ), association rate (Ka) and dissociation rate (Kd) constants, BIAcore kinetic evaluation software (version 2.1) was used.

- koff: 0.0005 s⁻¹
B1: 31-A6 (scFv, V domains shown)
VH: QVQLVQSGGGVVQPGRSLRLSCAASGFTFSSYGMHWVRQAPGKGLEWVAFIRYDGSNKYYADSVKGRFTISRDNSKNTLYLQMKSLRAEDTAVYYCKTHGSHDNWGQGTMVTVSS
VL: SYVLTQPPSVSGTPGQRVTISCSGGRSNIGSNTVKWYQQLPGTAPKLLIYGNDQRPSGVPDRFSGSKSGTSASLAITGVQAEDEADYYCQSYDRGTHPNLNFGTGTKVTVL
notes: scFv

- koff: 0.033 s⁻¹
B2: 70-2 (scFv, V domains shown)
VH: B1 VH with K97T, H102Y, N104Y
VL: B1 VL with R94S, G95S, T96L, H97R, P98G, N99S, L100R, N101V
notes: scFv

- koff: 0.0009 s⁻¹
B3: 43-G3 (scFv, V domains shown)
VH: B1 VH
VL: B1 VL with T96I, H97W
notes: scFv

- koff: 0.00752 s⁻¹
B4: 101-14 (scFv, V domains shown)
VH: B1 VH with K97T, H102Y, N104Y
VL: B1 VL with T96F, H97T, P98G, N99S, L100R, N101V
notes: scFv

- koff: 0.00976 s⁻¹
B5: 101-4 (scFv, V domains shown)
VH: B1 VH with K97T, H99S, H102I, N104Y
VL: B1 VL with R94S, G95S, T96L, H97T, P98G, N99S, L100R, N101V
notes: scFv

- koff: 0.129 s⁻¹
B6: 70-7 (scFv, V domains shown)
VH: B1 VH with K97T, H99R, G100R, S101R, H102S, D103N, N104Y
VL: B1 VL with R94S, G95S, T96L, H97R, P98G, N99S, L100R, N101V
notes: scFv

- koff: 0.072 s⁻¹
B7: 70-13 (scFv, V domains shown)
VH: B1 VH with K97T, H99S, H102I, N104Y
VL: B1 VL with R94S, G95S, T96L, H97R, P98G, N99S, L100R, N101V
notes: scFv

- koff: 0.0445 s⁻¹
B8: 101-5 (scFv, V domains shown)
VH: B1 VH with K97T, H99S, H102I, N104Y
VL: B1 VL with R94S, G95S, T96L, H97T, P98G, N99S, L100R, N101V
notes: scFv

- koff: 0.00854 s⁻¹
B9: 101-9 (scFv, V domains shown)
VH: B1 VH with K97T, H102Y, N104Y
VL: B1 VL with R94S, G95S, T96L, H97T, P98G, N99S, L100R, N101V
notes: scFv

- koff: 0.003 s⁻¹
B10: 156-6 (scFv, V domains shown)
VH: B1 VH with K97T
VL: B1 VL with G95D, T96F, H97T, P98G, N99S, L100R, N101V
notes: scFv

- koff: 0.005 s⁻¹
B11: 156-1 (scFv, V domains shown)
VH: B1 VH with K97T, N104T
VL: B1 VL with G95D, T96F, H97T, P98G, N99S, L100R, N101V
notes: scFv

- koff: 0.0005 s⁻¹
B12: 31-B5 (scFv, V domains shown)
VH: B1 VH
VL: B1 VL with N99S, L100I, N101S
notes: scFv

- koff: 0.006 s⁻¹
B13: 156-17 (scFv, V domains shown)
VH: B1 VH with K97T
VL: B1 VL with R94S, G95S, T96L, H97W, P98G, N99T, L100R, N101V
notes: scFv

- koff: 0.00235 s⁻¹
B14: 170-1 (scFv, V domains shown)
VH: B1 VH with K97T, H99S, H102Y, N104Y
VL: B1 VL with T96F, H97T, P98G, N99F, L100K, N101V
notes: scFv

- koff: 0.0029 s⁻¹
B15: 103-1 (scFv, V domains shown)
VH: B1 VH with K97T, H99Q, S101R
VL: B1 VL with T96F, H97T, P98G, N99S, L100R, N101V
notes: scFv

- koff: 0.009 s⁻¹
B16: 156-3 (scFv, V domains shown)
VH: B1 VH with K97T, N104T
VL: B1 VL with R94N, T96F, H97T, P98G, N99A, L100R, N101V
notes: scFv

- koff: 0.00058 s⁻¹
B17: 144-F1 (scFv, V domains shown)
VH: B1 VH
VL: B1 VL with T96H, P98Y, N99T, L100T, N101F
notes: scFv

- koff: 0.0007 s⁻¹
B18: 43-G2 (scFv, V domains shown)
VH: B1 VH
VL: B1 VL with T96S, H97S, N99A, L100I, N101M
notes: scFv
